# Results taken from patent US7317091.
# Molecular target: FcγRIIIa on human PBMC effector cells (human) (UniProt P08637)
# Experiment: cell-based or functional assay
Substance,"ADCC EC50, DoHH-2 targets, V158/F158 PBMCs",ADCC Fold Improvement Over WT,"ADCC log(EC50), DoHH-2 targets, V158/F158 PBMCs"
S239D/I332E alemtuzumab (antibody),3 ng/mL,3.3 fold,0.49 log(ng/ml)
V264I/I332E alemtuzumab (antibody),4 ng/mL,,0.6 log(ng/ml)

# Molecular target: human FcγRIIb extracellular region, GST-tagged (human) (UniProt P31994)
# Sequence (P31994 43-217): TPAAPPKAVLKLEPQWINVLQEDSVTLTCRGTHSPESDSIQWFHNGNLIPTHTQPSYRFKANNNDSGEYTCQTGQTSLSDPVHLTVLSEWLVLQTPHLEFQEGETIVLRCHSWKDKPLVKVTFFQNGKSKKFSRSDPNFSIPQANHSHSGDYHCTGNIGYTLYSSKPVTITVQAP
# Experiment: AlphaScreen competition
row,Substance,FcγRIIb Fold
1,S239D/I332E trastuzumab (antibody),19.7 fold vs WT
2,S239N/S298A/I332E trastuzumab (antibody),5.15 fold vs WT
3,S239D/V264I/I332E trastuzumab (antibody),14.4 fold vs WT

# Molecular target: human V158 FcγRIIIa extracellular region fused with glutathione S-transferase (GST) (human) (UniProt P08637)
# Sequence (P08637 17-208 F176V): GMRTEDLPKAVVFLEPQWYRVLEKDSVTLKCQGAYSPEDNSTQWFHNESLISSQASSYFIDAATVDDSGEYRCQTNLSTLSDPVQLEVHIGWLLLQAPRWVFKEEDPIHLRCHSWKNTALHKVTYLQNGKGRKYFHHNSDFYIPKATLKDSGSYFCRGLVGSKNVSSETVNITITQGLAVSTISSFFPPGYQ
# Experiment: AlphaScreen competition
row,Substance,FcγRIIIa Fold
1,P230A/E233D/I332E trastuzumab (antibody),1.87 fold vs WT
2,S324V trastuzumab (antibody),1.17 fold vs WT
3,E318R trastuzumab (antibody),1.06 fold vs WT
4,S239D/A330Y/I332E/K326E trastuzumab (antibody),64.1 fold vs WT
5,S239D/A330Y/I332E/V264T trastuzumab (antibody),17.7 fold vs WT
6,K274L trastuzumab (antibody),1.09 fold vs WT
7,N276E trastuzumab (antibody),0.87 fold vs WT
8,Y278W trastuzumab (antibody),0.41 fold vs WT
9,S239D/I332E alemtuzumab (antibody),56.1 fold vs WT
10,N276Y trastuzumab (antibody),0.56 fold vs WT
11,V264I/S298A/I332E trastuzumab (antibody),16.5 fold vs WT
12,S239D/A330Y/I332E/L234I trastuzumab (antibody),22.4 fold vs WT
13,S324Y trastuzumab (antibody),0.98 fold vs WT
14,K274T trastuzumab (antibody),1.41 fold vs WT
15,V273I trastuzumab (antibody),0.79 fold vs WT
16,S239D/I332E/A330I trastuzumab (antibody),59.1 fold vs WT
17,N276R trastuzumab (antibody),0.66 fold vs WT
18,K326T trastuzumab (antibody),1.88 fold vs WT
19,T335Y trastuzumab (antibody),1.56 fold vs WT
20,S239N/S298A/I332E trastuzumab (antibody),32.1 fold vs WT
21,V240I/V266I trastuzumab (antibody),1.72 fold vs WT
22,N276S trastuzumab (antibody),0.41 fold vs WT
23,V323I trastuzumab (antibody),0.83 fold vs WT

row,Substance,FcγRIIIa Fold
1,F275W trastuzumab (antibody),1.11 fold vs WT
2,E333T trastuzumab (antibody),0.78 fold vs WT
3,T335D trastuzumab (antibody),2.79 fold vs WT
4,K274Y trastuzumab (antibody),1.06 fold vs WT
5,S324R trastuzumab (antibody),0.71 fold vs WT
6,S239D/A330Y/I332E/V240I trastuzumab (antibody),28 fold vs WT
7,S239N/A330L/I332E trastuzumab (antibody),12.9 fold vs WT
8,P230A/E233D trastuzumab (antibody),0.92 fold vs WT
9,E233D trastuzumab (antibody),0.85 fold vs WT
10,K274R trastuzumab (antibody),1.41 fold vs WT
11,S239N/A330Y/I332E trastuzumab (antibody),14.2 fold vs WT
12,P230A trastuzumab (antibody),1.09 fold vs WT
13,E272Y trastuzumab (antibody),8.7 fold vs WT
14,K326I trastuzumab (antibody),1.43 fold vs WT
15,Y278E trastuzumab (antibody),0.9 fold vs WT
16,E283R trastuzumab (antibody),0.67 fold vs WT
17,T335R trastuzumab (antibody),2.58 fold vs WT
18,Y278T trastuzumab (antibody),1.87 fold vs WT
19,S239D/A330Y/I332E/L235D trastuzumab (antibody),7.04 fold vs WT
20,S239D/V264I/I332E trastuzumab (antibody),36.6 fold vs WT
21,K274E trastuzumab (antibody),6.11 fold vs WT
22,E333H trastuzumab (antibody),0.75 fold vs WT
23,V302I trastuzumab (antibody),1.01 fold vs WT
